Ends that are not written are not given here.
T1: CRF2R
T1 sequence (Q13324 whole entry, species assumed, looked up): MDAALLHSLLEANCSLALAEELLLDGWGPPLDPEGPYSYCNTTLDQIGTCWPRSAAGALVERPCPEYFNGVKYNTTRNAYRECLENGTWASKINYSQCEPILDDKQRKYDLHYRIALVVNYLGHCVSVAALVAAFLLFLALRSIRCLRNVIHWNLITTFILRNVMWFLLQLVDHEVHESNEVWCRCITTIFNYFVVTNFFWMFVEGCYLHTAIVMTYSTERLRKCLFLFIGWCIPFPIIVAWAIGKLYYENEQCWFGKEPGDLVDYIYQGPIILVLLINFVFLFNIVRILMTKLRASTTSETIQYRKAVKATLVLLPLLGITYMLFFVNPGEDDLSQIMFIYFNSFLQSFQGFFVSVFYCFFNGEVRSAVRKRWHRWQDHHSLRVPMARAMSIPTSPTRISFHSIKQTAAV


Tests used:
CRF2R = biological target: T1, CRF2R; test: cell-based or functional assay
CRF1R = test: cell-based or functional assay

| Binder | CRF2R EC50 (CRF2R) [nM] | CRF2R Emax (CRF2R) [%] | CRF1R EC50 (CRF1R) [nM] | CRF1R Emax (CRF1R) [%] |
| --- | --- | --- | --- | --- |
| IVLSLDVPIGLLQILLEQRRAAREQATTNARILARV-NH2 [SEQ ID NO 133] | 12.2 | 88 | > 100 | 4 |
| IVLSLDVPIGLLQILLEQAARAAREQATTNARILARV-NH2 [SEQ ID NO 135] | > 100 | 76 | > 100 | 6 |
| ZGPPISIDLPFQLLRKMIEIEKQEKEKQQATNNRLLLDTI (C-terminal amide) [SEQ ID NO 14] | 6.33 | 90 | 109 | 92 |
| ZGPPISIDLPFQLLRKMIEIEKQEKEKQQATTNRLLLDTV (C-terminal amide) [SEQ ID NO 16] | 7.88 | 86 | 136 | 98 |
| ZGPPISIDLPFQLLRKMIEIEKQEKEKQQAAANRLLLDTV (C-terminal amide) [SEQ ID NO 15] | 6.56 | 97 | 85.3 | 86 |
| ZGPPISIDLSLELLRKMIEIEKQEKEKQQATTNARILARV (C-terminal amide) [SEQ ID NO 142] | 9.08 | 77 | 43.5 | 85.3 |
| ZGPPISIDLPFYLLRKMIEIEKQEKEKQQATTNARILARV (C-terminal amide) [SEQ ID NO 147] | 6.75 | 94 | 102 | 96 |
| ZGPPISIDLPLHLLRKMIEIEKQEKEKQQATTNARILARV (C-terminal amide) [SEQ ID NO 145] | 7.8 | 69 | 196 | 91.3 |
| ZGPPISIDLPLELLRKMIEIEKQEKEKQQATTNARILARV (C-terminal amide) [SEQ ID NO 143] | 11.1 | 85.5 | 232 | 100 |
| ZGPPISIDLPLQLLRKMIEIEKQEKEKQQATTNARILARV (C-terminal amide) [SEQ ID NO 144] | 9.16 | 85.5 | 567 | 100 |
| ZGPPISIDLPFHLLRKMIEIEKQEKEKQQATTNARILARV (C-terminal amide) [SEQ ID NO 146] | 8.2 | 84.5 | 103 | 100 |
| IVLSLDVPIGLLQILLEQAAAAREQATTNARILARV-NH2 [SEQ ID NO 134] | > 100 | 19 | > 100 | 7 |
| IVLSLDVPIGLLQILLEQAAAREQATTNARILARV-NH2 [SEQ ID NO 139] | 42.6 | 60 | > 100 | 4 |
| IVLSLDVPIGLLQILLEQRAAREQATTNARILARV-NH2 [SEQ ID NO 136] | 23.4 | 68 | > 100 | 8 |
| IVLSLDVPIGLLQILLEQARAAAREQATTNARILARV-NH2 [SEQ ID NO 141] | > 100 | 29 | > 100 | 7 |
| IVLSLDVPIGLLQILLEQAAREQATTNARILARV-NH2 [SEQ ID NO 138] | 59 | 46 | > 100 | 5 |
| IVLSLDVPIGLLQILLEQRARAAREQATTNARILARV-NH2 [SEQ ID NO 137] | 36.9 | 100 | > 100 | 4 |
| IVLSLDVPIGLLQILLEQEKEKKRKETNARILARV-NH2 [SEQ ID NO 132] | 7.53 | 88 | > 100 | 8 |

Results, then the binder that gave them:

| CRF2R EC50 (CRF2R) [nM] | CRF2R Emax (CRF2R) [%] | CRF1R EC50 (CRF1R) [nM] | CRF1R Emax (CRF1R) [%] | Binder |
| --- | --- | --- | --- | --- |
| 42 | 60.6 | 100 | 91 | SQEPPISLDLTFHLLREVLEQARARAAREQATTNARILARV-NH2 [SEQ ID NO 157] |
| 9.29 | 79 | > 100 | 6 | ZGPPISIDLSLELLRKMIEQARARAAREQATTNARILARV (C-terminal amide) [SEQ ID NO 156] |
| > 100 | 19 | > 100 | 4 | SQEIVLSLDVPIGLLREVLEMTKADQLAQQAHSNRKLLDIA-NH2 [SEQ ID NO 152] |
| 9.45 | 51.5 | 295 | 100 | ZGPPISIDLPFQLLRKMIEIEKQEKEKQQATTNARILARV (C-terminal amide) [SEQ ID NO 148] |
| 26.2 | 95.5 | 1000 | 40.7 | ZGPPISIDLPIYLLRKMIEIEKQEKEKQQATTNARILARV (C-terminal amide) [SEQ ID NO 149] |
| 34.6 | 70.5 | 1000 | 5.7 | ZGPPISIDLPIQLLRKMIEIEKQEKEKQQATTNARILARV (C-terminal amide) [SEQ ID NO 150] |
| 36.8 | 96 | 1000 | 19.9 | ZGPPISIDLPTYLLRKMIEIEKQEKEKQQATTNARILARV (C-terminal amide) [SEQ ID NO 151] |
| 20.6 | 94 | 40.6 | 16 | IVLSLDVPIGLLQILLEMTKADQLAQQAHSNRKLLDIA-NH2 [SEQ ID NO 155] |
| 9.28 | 97 | > 100 | 7 | ZGIVLSLDVPIGLLRKMIEIEKQEKEKQQAANNRLLLDTI (C-terminal amide) [SEQ ID NO 153] |
| 6.37 | 89 | > 100 | 15 | IVLSLDVPIGLLQILLEIEKQEKEKQQAANNRLLLDTI-NH2 [SEQ ID NO 158] |
| 10.3 | 100 | > 100 | 7 | IVLSLDVPIGLLQILIEIEKQEKEKQQAANNRLLLDTI-NH2 [SEQ ID NO 154] |

From patent US20030148956A1 (PROCTER AND GAMBLE, published 2003)
